Data taken from article PMC10410706 (Proceedings of the National Academy of Sciences of the …, 2023).

T1: Smaug NTD (Drosophila melanogaster, UniProt Q23972 70-281)
T1 sequence: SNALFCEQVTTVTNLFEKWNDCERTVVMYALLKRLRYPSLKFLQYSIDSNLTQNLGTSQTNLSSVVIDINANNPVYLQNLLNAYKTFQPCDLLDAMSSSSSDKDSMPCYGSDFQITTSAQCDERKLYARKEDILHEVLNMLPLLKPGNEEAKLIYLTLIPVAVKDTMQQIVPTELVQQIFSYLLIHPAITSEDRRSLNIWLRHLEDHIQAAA

B1: Smaug NTD (aa 70-281, His-tag removed) (domain or fragment, Drosophila, UniProt Q23972 70-281, looked up)
chain: T1 sequence
B2: Smoothened 970-1003 synthetic peptide (wild-type) (peptide)
peptide: VPSYGEDELQQAMRLLNAASRQRTEAANEDFGGT
B3: Smaug 73-278Δ156-196 (Smaug part of the single-chain crystallisation construct) (domain or fragment, Drosophila, UniProt Q23972 73-278, looked up)
chain: LFCEQVTTVTNLFEKWNDCERTVVMYALLKRLRYPSLKFLQYSIDSNLTQNLGTSQTNLSSVVIDINANNPVYLQNLLNAYKTARKEDILHEVLNMLPLLKPGNEEAKLIYLTLIPVAVKDTMQQIVPTELVQQIFSYLLIHPAITSEDRRSLNIWLRHLEDHIQ

Experiments:
[1] = target: B2; assay: ITC
[2] = target: B1; assay: ITC
[3] = target: B3; assay: crystal structure
[4] = target: the molecule itself; assay: crystal structure
[5] = target: T1, Smaug NTD; assay: EMSA

## B1
[1]
  stoichiometry N: 1

## B2
[2]
  Kd: 800 nM

## VPSYGEDELQQAMRLLNAASRQRTEAANEDFGGT [Smo 970-1003 (Smoothened part of the single-chain crystallisation construct)]
[3]
  binding result: binds

## B3
[4]
  binding result: binds

## AGCACCGUAAAGC (ssRNA) [R13C]
[5]
  binding result: no binding
